Results reported in IntAct's records for PubMed 29892012.

B1: Coiled-coil alpha-helical rod protein 1 (Homo sapiens), Q8TD31 (parent)
chain: MFPPSGSTGLIPPSHFQARPLSTLPRMAPTWLSDIPLVQPPGHQDVSERRLDTQRPQVTMWERDVSSDRQEPGRRGRSWGLEGSQALSQQAEVIVRQLQELRRLEEEVRLLRETSLQQKMRLEAQAMELEALARAEKAGRAEAEGLRAALAGAEVVRKNLEEGSQRELEEVQRLHQEQLSSLTQAHEEALSSLTSKAEGLEKSLSSLETRRAGEAKELAEAQREAELLRKQLSKTQEDLEAQVTLVENLRKYVGEQVPSEVHSQTWELERQKLLETMQHLQEDRDSLHATAELLQVRVQSLTHILALQEEELTRKVQPSDSLEPEFTRKCQSLLNRWREKVFALMVQLKAQELEHSDSVKQLKGQVASLQEKVTSQSQEQAILQRSLQDKAAEVEVERMGAKGLQLELSRAQEARRRWQQQTASAEEQLRLVVNAVSSSQIWLETTMAKVEGAAAQLPSLNNRLSYAVRKVHTIRGLIARKLALAQLRQESCPLPPPVTDVSLELQQLREERNRLDAELQLSARLIQQEVGRAREQGEAERQQLSKVAQQLEQELQQTQESLASLGLQLEVARQGQQESTEEAASLRQELTQQQELYGQALQEKVAEVETRLREQLSDTERRLNEARREHAKAVVSLRQIQRRAAQEKERSQELRRLQEEARKEEGQRLARRLQELERDKNLMLATLQQEGLLSRYKQQRLLTVLPSLLDKKKSVVSSPRPPECSASAPVAAAVPTRESIKGSLSVLLDDLQDLSEAISKEEAVCQGDNLDRCSSSNPQMSS
partner: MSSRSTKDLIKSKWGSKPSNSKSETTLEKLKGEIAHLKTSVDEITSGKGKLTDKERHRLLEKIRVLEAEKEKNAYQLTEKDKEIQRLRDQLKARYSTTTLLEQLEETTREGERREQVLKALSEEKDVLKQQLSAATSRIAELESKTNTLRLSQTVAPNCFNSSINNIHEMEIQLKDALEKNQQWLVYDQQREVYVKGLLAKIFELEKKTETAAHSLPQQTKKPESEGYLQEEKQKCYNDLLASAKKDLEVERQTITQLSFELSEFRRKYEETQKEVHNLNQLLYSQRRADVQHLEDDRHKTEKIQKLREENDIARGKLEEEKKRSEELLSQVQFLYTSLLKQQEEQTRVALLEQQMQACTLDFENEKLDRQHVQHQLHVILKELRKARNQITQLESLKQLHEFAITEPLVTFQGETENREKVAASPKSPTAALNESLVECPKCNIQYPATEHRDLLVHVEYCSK
B2: Coiled-coil alpha-helical rod protein 1 (Homo sapiens), Q8TD31 (parent)
chain: B1 chain
partner: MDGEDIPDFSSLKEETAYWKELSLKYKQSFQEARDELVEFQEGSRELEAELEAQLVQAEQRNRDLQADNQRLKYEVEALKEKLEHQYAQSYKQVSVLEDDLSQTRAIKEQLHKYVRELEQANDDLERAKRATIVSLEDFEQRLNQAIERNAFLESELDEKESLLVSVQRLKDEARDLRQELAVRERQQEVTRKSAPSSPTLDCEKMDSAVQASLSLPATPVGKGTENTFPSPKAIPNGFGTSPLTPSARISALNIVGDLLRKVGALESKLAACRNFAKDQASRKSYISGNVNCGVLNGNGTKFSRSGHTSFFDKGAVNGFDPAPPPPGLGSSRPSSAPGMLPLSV
B3: Myotubularin-related protein 9 (Homo sapiens), Q96QG7 (parent)
chain: MEFAELIKTPRVDNVVLHRPFYPAVEGTLCLTGHHLILSSRQDNTEELWLLHSNIDAIDKRFVGSLGTIIIKCKDFRIIQLDIPGMEECLNIASSIEALSTLDSITLMYPFFYRPMFEVIEDGWHSFLPEQEFELYSSATSEWRLSYVNKEFAVCPSYPPIVTVPKSIDDEALRKVATFRHGGRFPVLSYYHKKNGMVIMRSGQPLTGTNGRRCKEDEKLINATLRAGKRGYIIDTRSLNVAQQTRAKGGGFEQEAHYPQWRRIHKSIERYHILQESLIKLVEACNDQTHNMDRWLSKLEASNWLTHIKEILTTACLAAQCIDREGASILIHGTEGTDSTLQVTSLAQIILEPRSRTIRGFEALIEREWLQAGHPFQQRCAQSAYCNTKQKWEAPVFLLFLDCVWQILRQFPCSFEFNENFLIMLFEHAYASQFGTFLGNNESERCKLKLQQKTMSLWSWVNQPSELSKFTNPLFEANNLVIWPSVAPQSLPLWEGIFLRWNRSSKYLDEAYEEMVNIIEYNKELQAKVNILRRQLAELETEDGMQESP
partner: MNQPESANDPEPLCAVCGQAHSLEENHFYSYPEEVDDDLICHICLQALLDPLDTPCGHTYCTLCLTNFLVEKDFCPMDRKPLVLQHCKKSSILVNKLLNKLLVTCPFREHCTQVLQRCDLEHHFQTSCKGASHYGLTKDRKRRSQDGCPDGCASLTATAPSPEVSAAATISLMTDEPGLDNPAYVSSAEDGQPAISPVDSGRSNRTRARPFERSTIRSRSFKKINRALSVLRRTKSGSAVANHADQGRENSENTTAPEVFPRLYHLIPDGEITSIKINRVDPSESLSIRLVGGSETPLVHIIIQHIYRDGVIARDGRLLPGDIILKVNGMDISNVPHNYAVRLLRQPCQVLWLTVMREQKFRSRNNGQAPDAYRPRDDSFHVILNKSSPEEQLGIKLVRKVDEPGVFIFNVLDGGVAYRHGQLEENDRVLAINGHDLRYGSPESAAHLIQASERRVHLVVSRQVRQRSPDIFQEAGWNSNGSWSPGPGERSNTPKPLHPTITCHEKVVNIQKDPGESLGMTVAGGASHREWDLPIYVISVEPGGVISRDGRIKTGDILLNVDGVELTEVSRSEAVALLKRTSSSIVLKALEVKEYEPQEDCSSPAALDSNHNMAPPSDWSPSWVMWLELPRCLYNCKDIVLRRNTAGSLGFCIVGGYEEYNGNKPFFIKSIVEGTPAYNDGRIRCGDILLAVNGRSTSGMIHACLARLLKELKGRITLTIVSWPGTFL
B4: Coiled-coil alpha-helical rod protein 1 (Homo sapiens), Q8TD31 (parent)
chain: B1 chain
partner: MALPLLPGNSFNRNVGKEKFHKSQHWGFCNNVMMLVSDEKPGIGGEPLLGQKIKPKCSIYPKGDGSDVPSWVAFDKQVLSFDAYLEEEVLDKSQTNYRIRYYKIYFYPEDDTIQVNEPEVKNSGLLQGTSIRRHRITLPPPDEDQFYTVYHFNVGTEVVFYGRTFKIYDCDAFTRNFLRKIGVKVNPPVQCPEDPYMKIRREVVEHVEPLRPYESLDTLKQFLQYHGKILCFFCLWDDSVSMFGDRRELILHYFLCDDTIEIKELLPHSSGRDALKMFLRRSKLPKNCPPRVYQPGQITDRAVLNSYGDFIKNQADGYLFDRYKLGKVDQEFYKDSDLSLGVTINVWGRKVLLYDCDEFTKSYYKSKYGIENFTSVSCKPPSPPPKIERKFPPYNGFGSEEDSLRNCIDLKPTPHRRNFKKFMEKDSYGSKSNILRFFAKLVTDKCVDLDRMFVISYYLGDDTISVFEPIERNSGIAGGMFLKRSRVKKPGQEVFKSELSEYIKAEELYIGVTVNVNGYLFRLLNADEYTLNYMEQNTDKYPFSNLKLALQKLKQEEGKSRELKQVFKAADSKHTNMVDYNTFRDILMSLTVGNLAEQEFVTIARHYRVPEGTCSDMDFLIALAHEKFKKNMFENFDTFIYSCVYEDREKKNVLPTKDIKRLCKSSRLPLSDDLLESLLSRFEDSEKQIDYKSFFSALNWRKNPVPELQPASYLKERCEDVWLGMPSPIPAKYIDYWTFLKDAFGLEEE
B5: TBC1 domain family member 22B (Homo sapiens), Q9NU19 (parent)
chain: MAAENSKQFWKRSAKLPGSIQPVYGAQHPPLDPRLTKNFIKERSKVNTVPLKNKKASSFHEFARNTSDAWDIGDDEEEDFSSPSFQTLNSKVALATAAQVLENHSKLRVKPERSQSTTSDVPANYKVIKSSSDAQLSRNSSDTCLRNPLHKQQSLPLRPIIPLVARISDQNASGAPPMTVREKTRLEKFRQLLSSQNTDLDELRKCSWPGVPREVRPITWRLLSGYLPANTERRKLTLQRKREEYFGFIEQYYDSRNEEHHQDTYRQIHIDIPRTNPLIPLFQQPLVQEIFERILFIWAIRHPASGYVQGINDLVTPFFVVFLSEYVEEDVENFDVTNLSQDMLRSIEADSFWCMSKLLDGIQDNYTFAQPGIQKKVKALEELVSRIDEQVHNHFRRYEVEYLQFAFRWMNNLLMRELPLRCTIRLWDTYQSEPEGFSHFHLYVCAAFLIKWRKEILDEEDFQGLLMLLQNLPTIHWGNEEIGLLLAEAYRLKYMFADAPNHYRR
partner: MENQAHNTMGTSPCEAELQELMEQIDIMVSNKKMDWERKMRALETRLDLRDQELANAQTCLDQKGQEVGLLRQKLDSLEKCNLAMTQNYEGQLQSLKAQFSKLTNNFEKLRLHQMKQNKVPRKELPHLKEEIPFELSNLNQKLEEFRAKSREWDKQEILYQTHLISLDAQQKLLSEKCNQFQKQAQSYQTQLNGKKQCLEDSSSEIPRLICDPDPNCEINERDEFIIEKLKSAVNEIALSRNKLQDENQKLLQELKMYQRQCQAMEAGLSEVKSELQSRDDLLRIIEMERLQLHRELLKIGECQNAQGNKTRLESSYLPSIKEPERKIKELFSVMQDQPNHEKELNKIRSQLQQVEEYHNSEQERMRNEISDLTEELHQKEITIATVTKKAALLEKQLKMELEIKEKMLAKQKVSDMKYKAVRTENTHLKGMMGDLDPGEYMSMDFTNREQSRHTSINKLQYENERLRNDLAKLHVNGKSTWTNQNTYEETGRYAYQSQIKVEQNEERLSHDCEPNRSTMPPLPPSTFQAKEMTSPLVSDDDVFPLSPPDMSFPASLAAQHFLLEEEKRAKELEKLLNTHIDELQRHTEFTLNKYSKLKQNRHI

Variants of: B1
Conditions: with cep55_human CEP55, Q53EZ4

Row | Variant | effect of a mutation on the interaction
1 | W337R | disrupting interaction strength

Variants of: B2
Conditions: with ndel1_human NDEL1, Q9GZM8

Row | Variant | effect of a mutation on the interaction
2 | W337R | disrupting interaction strength

Variants of: B3
Conditions: with lnx1_human LNX1, Q8TBB1

Row | Variant | effect of a mutation on the interaction
3 | R359S | with no effect

Variants of: B4
Conditions: with efhc2_human EFHC2, Q5JST6

Row | Variant | effect of a mutation on the interaction
4 | W337R | disrupting interaction strength

Variants of: B5
Conditions: with deup1_human DEUP1, Q05D60

Row | Variant | effect of a mutation on the interaction
5 | A349T | disrupting interaction strength
